Source: US20140271699A1 (US Dept. of Health and Human Services, published 2014)

Target: RSV F glycoprotein as expressed by RSV (on RSV-infected HEp-2 cells / on virus) (RSV (strain  for this assay), UniProt P03420 26-109; P03420 137-574)
Test: cell-based or functional assay

RSV F glycoprotein as expressed by RSV (on RSV-infected HEp-2 cells / on virus), sequence (P03420 26-109, chain 1 of 2): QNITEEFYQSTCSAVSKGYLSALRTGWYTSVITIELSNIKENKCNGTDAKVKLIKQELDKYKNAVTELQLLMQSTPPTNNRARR
RSV F glycoprotein as expressed by RSV (on RSV-infected HEp-2 cells / on virus), sequence (P03420 137-574, chain 2 of 2): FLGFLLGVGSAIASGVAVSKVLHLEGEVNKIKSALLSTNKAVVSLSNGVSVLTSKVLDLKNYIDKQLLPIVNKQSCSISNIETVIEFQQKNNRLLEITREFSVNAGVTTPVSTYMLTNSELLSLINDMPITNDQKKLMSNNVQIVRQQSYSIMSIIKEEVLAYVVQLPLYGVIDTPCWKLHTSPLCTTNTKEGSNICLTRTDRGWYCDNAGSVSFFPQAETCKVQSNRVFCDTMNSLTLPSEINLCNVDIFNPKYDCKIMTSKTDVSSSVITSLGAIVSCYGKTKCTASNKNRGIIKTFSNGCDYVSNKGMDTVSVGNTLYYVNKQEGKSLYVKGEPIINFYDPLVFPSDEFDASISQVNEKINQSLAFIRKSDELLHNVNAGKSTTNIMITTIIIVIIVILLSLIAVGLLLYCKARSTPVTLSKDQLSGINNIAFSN

B1: AM22 antibody (antibody, V domains shown)
VH: QVQLVQSGAEVKKPGATVKVSCKISGHTLIKLSIHWVRQAPGKGLEWMGGYEGEVDEIFYAQKFQHRLTVIADTATDTVYMELGRLTSDDTAVYFCGTLGVTVTEAGLGIDDYWGQGTLVTVSS
VL: EIVLTQSPGTLSLSPGERATLSCRASQIVSRNHLAWYQQKPGQAPRLLIFGASSRATGIPVRFSGSGSGTDFTLTINGLAPEDFAVYYCLSSDSSIFTFGPGTKVDFKR
RSV neutralization (flow cytometry, RSV-GFP on HEp-2 cells), potency relative to palivizumab: ~50 fold
